Measurements reported in paper PMC8948467.

Tests used:
[1] = biological target: IgM of the IgM/IgA-enriched immunoglobulin Pentaglobin; assay: non-reducing SDS-PAGE with Western blot; Pentaglobin separated by non-reducing SDS-PAGE, transferred to nitrocellulose; J-chain, IgA and IgM detected with specific antibodies and fluorophore labeled secondary antibodies
[2] = biological target: IgA of the IgM/IgA-enriched immunoglobulin Pentaglobin; assay: as above

Chain of IgM of the IgM/IgA-enriched immunoglobulin Pentaglobin (P01871 whole entry): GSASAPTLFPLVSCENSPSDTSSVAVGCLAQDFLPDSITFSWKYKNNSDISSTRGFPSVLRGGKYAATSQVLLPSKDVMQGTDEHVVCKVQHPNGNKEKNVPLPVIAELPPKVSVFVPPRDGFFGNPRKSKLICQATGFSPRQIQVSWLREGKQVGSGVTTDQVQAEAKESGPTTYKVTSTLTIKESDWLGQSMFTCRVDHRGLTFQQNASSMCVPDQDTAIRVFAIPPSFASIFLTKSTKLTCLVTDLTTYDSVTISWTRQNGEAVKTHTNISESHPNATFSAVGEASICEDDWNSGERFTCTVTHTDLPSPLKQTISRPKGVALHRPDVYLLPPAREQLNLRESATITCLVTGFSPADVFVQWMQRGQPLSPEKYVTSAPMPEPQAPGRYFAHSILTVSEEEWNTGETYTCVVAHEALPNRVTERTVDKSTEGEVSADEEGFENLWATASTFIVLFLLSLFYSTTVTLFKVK
Chain of IgA of the IgM/IgA-enriched immunoglobulin Pentaglobin (P01876 whole entry): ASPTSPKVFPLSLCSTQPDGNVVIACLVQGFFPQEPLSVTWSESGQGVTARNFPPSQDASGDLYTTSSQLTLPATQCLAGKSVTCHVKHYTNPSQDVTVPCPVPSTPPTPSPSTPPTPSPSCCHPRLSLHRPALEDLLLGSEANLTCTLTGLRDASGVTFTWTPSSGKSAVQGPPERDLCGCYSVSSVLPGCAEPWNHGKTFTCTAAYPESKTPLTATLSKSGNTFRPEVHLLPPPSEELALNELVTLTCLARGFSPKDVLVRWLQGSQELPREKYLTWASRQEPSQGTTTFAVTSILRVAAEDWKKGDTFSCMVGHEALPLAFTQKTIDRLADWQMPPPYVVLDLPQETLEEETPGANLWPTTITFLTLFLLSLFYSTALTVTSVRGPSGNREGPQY

“IgM of the IgM/IgA-enriched immunoglobulin Pentaglobin (natural protein)” showed a stoichiometry N [1] of 5.

In the case of “IgA of the IgM/IgA-enriched immunoglobulin Pentaglobin (natural protein)”, the stoichiometry N [2] is reported as 2.
